The record followed here is publication PMC9935906, “Network of hotspot interactions cluster tau amyloid folds” (Nature Communications, 2023).

The chains are these.
B1: AQIVYK peptide (peptide)
peptide: AQIVYK
notes: Acetyl and amide caps and the supplier (GenScript) are stated only for the ZipperDB-predicted hexapeptides; likely the same here; also called VQIVYK alanine mutant at position one; source: peptide
B2: VAIVYK peptide (peptide)
peptide: VAIVYK
notes: Acetyl and amide caps and the supplier (GenScript) are stated only for the ZipperDB-predicted hexapeptides; likely the same here; also called VQIVYK alanine mutant at position two; source: peptide
B3: VQIVYA peptide (peptide)
peptide: VQIVYA
notes: Acetyl and amide caps and the supplier (GenScript) are stated only for the ZipperDB-predicted hexapeptides; likely the same here; also called VQIVYK alanine mutant at position six; source: peptide
B4: VQIVAK peptide (peptide)
peptide: VQIVAK
notes: Acetyl and amide caps and the supplier (GenScript) are stated only for the ZipperDB-predicted hexapeptides; likely the same here; also called VQIVYK alanine mutant at position five; source: peptide
B5: 275VQIINK280 peptide (peptide)
peptide: Ac-VQIINK-NH2
notes: source: synthetic peptide, bought: GenScript (≥95% purity)
B6: 306VQIVYK311 peptide (peptide)
peptide: Ac-VQIVYK-NH2
notes: also called WT; source: synthetic peptide, bought: GenScript (≥95% purity)

The first series concerns the molecule itself. Put plainly: ThT fluorescence aggregation assay + TEM; peptide alone, 200 µM in 1X PBS + 25 µM ThT, 37 °C, one week, endpoint ThT; fibrils checked by negative-stain TEM; self-assembly into fibrils.
Take B1: the binding result is on record as “binds”. Same read-out and setting: for B2 the value was “binds”; for B3, “binds”; for B4, “binds”.

Another series concerns the molecule itself. Put plainly: ThT fluorescence aggregation assay + TEM; peptide alone, 1 mM in 1X PBS, neutral pH, one week at 37 °C with 900 RPM orbital shaking; endpoint ThT (15 µM) and negative-stain TEM; self-assembly into fibrils.
Turning to B5, the binding result is recorded as “binds”. Turning to B6, the binding result is given as “binds”.
